# In paper PMC6144507 (Molecular Pain, 2018):
# B1: L-TAT-GESV (peptide)
# peptide: GRKKRRQRRRYAGQWGESV
# Molecular target: His-nNOS(1-299) (UniProt P29475-1 1-299)
# Test: AlphaScreen or HTRF
# Sequence of His-nNOS(1-299) (P29475 1-299): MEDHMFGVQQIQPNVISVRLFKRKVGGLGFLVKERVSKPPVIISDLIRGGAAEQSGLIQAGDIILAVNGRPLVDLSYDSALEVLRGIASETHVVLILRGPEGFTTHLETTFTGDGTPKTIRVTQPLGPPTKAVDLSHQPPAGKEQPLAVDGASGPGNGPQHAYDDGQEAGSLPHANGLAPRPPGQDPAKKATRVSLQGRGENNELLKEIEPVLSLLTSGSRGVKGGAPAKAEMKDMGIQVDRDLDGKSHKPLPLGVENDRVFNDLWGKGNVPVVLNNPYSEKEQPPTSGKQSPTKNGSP
binder,measurement,value
B1,IC50,4.9 µM
